Key:
Assay in all cases: EMSA
[1] = tested on: wt bZIP (GCN4 basic region - C/EBP leucine zipper hybrid), synthetic (artificial (yeast GCN4 / C/EBP))
[2] = molecular target: 11A alanine mutant bZIP (GCN4 basic region - C/EBP zipper) (artificial (yeast GCN4 / C/EBP)) (UniProt P03069); settings: group statement
[3] = molecular target: 18A alanine mutant bZIP (GCN4 basic region - C/EBP zipper) (artificial (yeast GCN4 / C/EBP)) (UniProt P03069); settings: group statement
[4] = molecular target: 4A alanine mutant bZIP (GCN4 basic region - C/EBP zipper) (artificial (yeast GCN4 / C/EBP)) (UniProt P03069); settings: group statement
[5] = tested on: wt bZIP (GCN4 basic region - C/EBP leucine zipper hybrid), expressed (artificial (yeast GCN4 / C/EBP))
[6] = also DNase I footprinting (p65)
[7] = higher-order bandshifts excluded

Sequence: GATCTGGATGACTCATTTTTTTTT (double strand) [WT AP-1 (his3 flanks)]
- Kd ([1]; apparent monomeric Kd, 2 mM MgCl2, 1 mM CaCl2, pH 7.5, 200 mM guanidine HCl): 13 nM

Sequence: TGCAGGAACCACGTGGTGAAGGTT (double strand) [Max E-box]
- binding signal (fold weaker than AP-1) ([2]; both E-box sites): 10
- binding signal (fold weaker than AP-1) ([3]; both E-box sites): 10
- binding signal (fold weaker than AP-1) ([4]; both E-box sites): 10
- Kd ([1]; saturation not achieved): 840 nM

Sequence: TGCAGGAAGACTAACCTGAAGGTT (double strand) [Partial site / NON2]
- Kd ([1]; apparent monomeric Kd, pH 7.5): 280 nM

Sequence: TGCAGGAAGCACGTAGTGAAGGTT (double strand) [HRE]
- binding signal (fold weaker than AP-1) [2, 6]: 7
- binding signal (fold weaker than AP-1) [3, 6]: 7
- binding signal (fold weaker than AP-1) [4, 6]: 7
- Kd ([1]; saturation not achieved): 1400 nM

Sequence: TGCAGGAATCACGTGATGAAGGTT (double strand) [Arnt E-box]
- binding signal (fold weaker than AP-1) ([2]; both E-box sites): 10
- binding signal (fold weaker than AP-1) ([3]; both E-box sites): 10
- binding signal (fold weaker than AP-1) ([4]; both E-box sites): 10
- Kd ([1]; saturation not achieved): 570 nM

Sequence: TGCAGGAATCACTGAAGGTT (double strand) [Arnt E-box half site]
- Kd ([1]; saturation not achieved): > 4000 nM

Sequence: TGCAGGAATGACGTCATGAAGGTT (double strand) [CRE]
- Kd ([1]; apparent monomeric Kd, pH 7.5): 12 nM

Sequence: TGCAGGAATGACTCATTGAAGGTT (double strand) [AP-1]
- Kd ([5]; higher-order bandshifts excluded, FIG. 6 legend gives 568 nM for wt bZIP with AP-1 in another experiment (TKMC buffer)): 4.8 nM
- Kd ([1]; apparent monomeric Kd, pH 7.5): 13 nM

Sequence: TGCAGGAATGACTGAAGGTT (double strand) [AP-1 half site]
- Kd [5, 7]: 23 nM
- Kd ([1]; apparent monomeric Kd, pH 7.5): 84 nM

Sequence: TGCAGGAATTGCGCAATGAAGGTT (double strand) [C/EBP]
- binding signal (fold weaker than AP-1) [2, 6]: 3
- binding signal (fold weaker than AP-1) [3, 6]: 3
- binding signal (fold weaker than AP-1) [4, 6]: 3
- Kd [5, 7]: 29 nM
- Kd ([1]; apparent monomeric Kd, pH 7.5): 120 nM

Sequence: TGCAGGAATTGCGTGATGAAGGTT (double strand) [XRE1]
- binding signal (fold weaker than AP-1) [2, 6]: 7
- binding signal (fold weaker than AP-1) [3, 6]: 7
- binding signal (fold weaker than AP-1) [4, 6]: 7
- Kd ([1]; apparent monomeric Kd, pH 7.5): 240 nM

Sequence: TGCAGGAATTGCTGAAGGTT (double strand) [C/EBP half site]
- Kd ([5]; saturation not achieved): > 1500 nM
- Kd ([1]; saturation not achieved): > 5000 nM

— patent US20070009938
